Test results taken from patent US20250179143A1, “SYSTEMS AND METHODS FOR CHAPERONE-MEDIATED LIGAND EXCHANGE ON MHC-I AND MHC-RELATED MOLECULES USING CHICKEN TAPBPR” (priority 2022, published 2025).

B1: human TAPBPR luminal domain (hTAPBPR), Q9BX59 22-405 (protein)
chain: KPHPAEGQWRAVDVVLDCFLAKDGAHRGALASSEDRARASLVLKQVPVLDDGSLEDFTDFQGGTLAQDDPPIIFEASVDLVQIPQAEALLHADCSGKEVTCEISRYFLQMTETTVKTAAWFMANMQVSGGGPSISLVMKTPRVTKNEALWHPTLNLPLSPQGTVRTAVEFQVMTQTQSLSFLLGSSASLDCGFSMAPGLDLISVEWRLQHKGRGQLVYSWTAGQGQAVRKGATLEPAQLGMARDASLTLPGLTIQDEGTYICQITTSLYRAQQIIQLNIQASPKVRLSLANEALLPTLICDIAGYYPLDVVVTWTREELGGSPAQVSGASFSSLRQSVAGTYSISSSLTAEPGSAGATYTCQVTHISLEEPLGASTQVVPPERR
B2: mouse TAPBPR luminal domain (moTAPBPR) (protein, UniProt Q8VD31 21-412, looked up)
chain: TDPPTAPTTAERQRQPTDIILDCFLVTEDRHRGAFASSGDRERALLVLKQVPVLDDGSLEGITDFQGSTETKQDSPVIFEASVDLVQIPQAEALLHADCSGKAVTCEISKYFLQARQEATFEKAHWFISNMQVSRGGPSVSMVMKTLRDAEVGAVRHPTLNLPLSAQGTVKTQVEFQVTSETQTLNHLLGSSVSLHCSFSMAPGLDLTGVEWRLQHKGSGQLVYSWKTGQGQAKRKGATLEPEELLRAGNASLTLPNLTLKDEGNYICQISTSLYQAQQIMPLNILAPPKIQLHLANKDPLPSLVCSIAGYYPLDVGVTWIREELGGIPAQVSGASFSSLRQSTMGTYSISSTVMADPGPTGATYTCQVAHVSLEEPLTTSMRVLPNPEQRG

Key:
[1] = molecular target: peptide-deficient (empty) HLA-B*37:01/hb2m (human); assay: SPR, TAPBPR-biotin on streptavidin chip, UV-irradiated (empty) HLA as analyte; details: remark: other sources report otherwise
[2] = molecular target: 96 HLA-I allotypes on single antigen beads (SABs); assay: SAB tetramer assay, ratio to W6/32 control

| Binder | Kd [1] | MFI ratio [2] |
| --- | --- | --- |
| B1 | 7.02 µM | – |
| B2 | – | < 5.8 |
